A word on the EC50: it is the midpoint of the concentration-response curve. A high value points to a need for much substance.

Experiment [1] has as its target T1, human CD3 (human, UniProt P07766 23-207; P04234 22-171).
T1 construct: As expressed on Jurkat cells or human T cells within the T cell receptor complex; also called hCD3
The experiment in a line: FACS titration of Jurkat cells.

Experiment [2] addresses T1, human CD3. Put plainly: FACS assays. For orientation: Flow cytometry measures light scatter and fluorescence of single cells or particles in a stream.

T1 sequence (P07766 23-207 limits assumed, chain 1 of 2): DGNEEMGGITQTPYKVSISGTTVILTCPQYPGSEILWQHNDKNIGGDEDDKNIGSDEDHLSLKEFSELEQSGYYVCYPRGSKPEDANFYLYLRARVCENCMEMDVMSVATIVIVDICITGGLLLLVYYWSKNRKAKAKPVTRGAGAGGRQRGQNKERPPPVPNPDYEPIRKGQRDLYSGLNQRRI
T1 sequence (P04234 22-171 limits assumed, chain 2 of 2): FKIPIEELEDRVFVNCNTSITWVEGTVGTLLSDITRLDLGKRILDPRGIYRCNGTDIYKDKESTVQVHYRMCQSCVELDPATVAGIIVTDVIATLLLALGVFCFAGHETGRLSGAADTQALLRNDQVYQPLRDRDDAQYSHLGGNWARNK

B1: CD3-VH-P (antibody, V domains shown)
VH: EVQLVESGGGLVQPGRSLRLSCVASGFTFDDYSMHWVRQAPGKGLEWVSGISWNSGSKDYADSVKGRFTISRDNAKNSLYLQMNSLRAEDTALYYCAKYGSGYGKFYHYGLDVWGQGTTVTVSS
VL: DIQMTQSPSSLSASVGDSVTITCRASQSINNYLNWYQQKPGKAPKLLIYTASSLLSGVPSRFSGSGSGTDFTLTISGLHPEDFATYFCQQSFSTPPITFGQGTRLDIK
notes: Anti-CD3 antibody from a genetically modified mouse
Consider B1, for which, in the experiment with human CD3 [1], the concentration giving a half-maximal response (EC50) fell in the range of 1 to 40 nM.

B2: CD3-VH-G (antibody, V domains shown)
VH: EVQLVESGGGLVQPGRSLRLSCAASGFTFDDYSMHWVRQAPGKGLEWVSGISWNSGSKGYADSVKGRFTISRDNAKNSLYLQMNSLRAEDTALYYCAKYGSGYGKFYHYGLDVWGQGTTVTVSS
VL: DIQMTQSPSSLSASVGDSVTITCRASQSINNYLNWYQQKPGKAPKLLIYTASSLLSGVPSRFSGSGSGTDFTLTISGLHPEDFATYFCQQSFSTPPITFGQGTRLDIK
notes: CD3-VH-P engineered to germline frameworks
For B2, the binding result in the experiment with human CD3 [2] is “binds”.

For the origin of these results see patent US20200376136A1 (Regeneron, published 2020).
